Measured values from US20060030020A1.

What was measured:
[1] = molecular target: mouse monoclonal anti-β-gal antibody (Promega, Madison, Wis.); assay: single round of affinity selection on wells coated with anti-β-gal antibodies
[2] = molecular target: mouse monoclonal anti-β-gal antibody (Promega, Madison, Wis.); assay: affinity selection on wells coated with anti-β-gal antibody; input λβ-gal/λV′sac 10^3/10^6
[3] = molecular target: mouse monoclonal anti-β-gal antibody (Promega, Madison, Wis.); assay: affinity selection on wells coated with anti-β-gal antibody; input λβ-gal/λV′sac 10^3/10^7
[4] = molecular target: mouse monoclonal anti-β-gal antibody (Promega, Madison, Wis.); assay: affinity selection on wells coated with anti-β-gal antibody; input λβ-gal/λV′sac 10^3/10^8
[5] = molecular target: mouse monoclonal anti-β-gal antibody (Promega, Madison, Wis.); assay: affinity selection on wells coated with anti-β-gal antibody; input λβ-gal/λV′sac 10^3/10^9
[6] = molecular target: mouse monoclonal anti-β-gal antibody (Promega, Madison, Wis.); assay: affinity selection on wells coated with anti-β-gal antibody; input λβ-gal/λV′sac 10^4/10^7
[7] = molecular target: mouse monoclonal anti-β-gal antibody (Promega, Madison, Wis.); assay: affinity selection on wells coated with anti-β-gal antibody; input λβ-gal/λV′sac 10^4/10^8
[8] = molecular target: mouse monoclonal anti-β-gal antibody (Promega, Madison, Wis.); assay: affinity selection on wells coated with anti-β-gal antibody; input λβ-gal/λV′sac 10^4/10^9
[9] = molecular target: mouse monoclonal anti-β-gal antibody (Promega, Madison, Wis.); assay: affinity selection on wells coated with anti-β-gal antibody; input λβ-gal/λV′sac 10^3/10^10
[10] = molecular target: mouse monoclonal anti-β-gal antibody (Promega, Madison, Wis.); assay: affinity selection on wells coated with anti-β-gal antibody; input λβ-gal/λV′sac 10^4/10^10
[11] = molecular target: mouse monoclonal anti-β-gal antibody (Promega, Madison, Wis.); assay: affinity selection on wells coated with anti-β-gal antibody, collagenase elution, plaques counted on X-gal; input λβ-gal/λV′sac 10^3/10^6
[12] = molecular target: mouse monoclonal anti-β-gal antibody (Promega, Madison, Wis.); assay: affinity selection on wells coated with anti-β-gal antibody, collagenase elution, plaques counted on X-gal; input λβ-gal/λV′sac 10^3/10^7
[13] = molecular target: mouse monoclonal anti-β-gal antibody (Promega, Madison, Wis.); assay: affinity selection on wells coated with anti-β-gal antibody, collagenase elution, plaques counted on X-gal; input λβ-gal/λV′sac 10^3/10^8
[14] = molecular target: mouse monoclonal anti-β-gal antibody (Promega, Madison, Wis.); assay: affinity selection on wells coated with anti-β-gal antibody, collagenase elution, plaques counted on X-gal; input λβ-gal/λV′sac 10^3/10^9
[15] = molecular target: mouse monoclonal anti-β-gal antibody (Promega, Madison, Wis.); assay: affinity selection on wells coated with anti-β-gal antibody, collagenase elution, plaques counted on X-gal; input λβ-gal/λV′sac 10^4/10^7
[16] = molecular target: mouse monoclonal anti-β-gal antibody (Promega, Madison, Wis.); assay: affinity selection on wells coated with anti-β-gal antibody, collagenase elution, plaques counted on X-gal; input λβ-gal/λV′sac 10^4/10^8
[17] = molecular target: mouse monoclonal anti-β-gal antibody (Promega, Madison, Wis.); assay: affinity selection on wells coated with anti-β-gal antibody, collagenase elution, plaques counted on X-gal; input λβ-gal/λV′sac 10^4/10^9
[18] = molecular target: mouse monoclonal anti-β-gal antibody (Promega, Madison, Wis.); assay: affinity selection on wells coated with anti-β-gal antibody, collagenase elution, plaques counted on X-gal; input λβ-gal/λV′sac 10^3/10^10
[19] = molecular target: mouse monoclonal anti-β-gal antibody (Promega, Madison, Wis.); assay: affinity selection on wells coated with anti-β-gal antibody, collagenase elution, plaques counted on X-gal; input λβ-gal/λV′sac 10^4/10^10
[20] = molecular target: mucin of bovine submaxillary glands (Sigma, St. Louis, Mo.) (bovine); assay: affinity selection on wells coated with mucin, 1 mM CaCl2, collagenase elution

λβ-gal phage particles grown on MC8 (su+), displaying the β-gal multimer (pV′-β-gal fusion protein assembled with β-gal monomers) on the phage tail (from UniProt P00722 10-1024)
average efficiency of recovery (% of the input phage) [1]: 1 | Enrichment (fold over λV′sac) [2]: > 8000 | Enrichment (fold over λV′sac) [3]: 2000 | Enrichment (fold over λV′sac) [4]: 80000 | Enrichment (fold over λV′sac) [5]: 280000 | Enrichment (fold over λV′sac) [6]: 16000 | Enrichment (fold over λV′sac) [7]: 170000 | Enrichment (fold over λV′sac) [8]: 300000 | Enrichment (fold over λV′sac) [9]: 530000 | Enrichment (fold over λV′sac) [10]: 770000 | Output Phage [11]: 8 plaques | Output Phage [12]: 10 plaques | Output Phage [13]: 8 plaques | Output Phage [14]: 99 plaques | Output Phage [15]: 96 plaques | Output Phage [16]: 168 plaques | Output Phage [17]: 108 plaques | Output Phage [18]: 5 plaques | Output Phage [19]: 129 plaques

B1: λBPA phage particles grown on MC8 (su+), displaying the BPA (Bauhinia purpurea lectin) multimer (pV′-BPA fusion protein assembled with BPA monomers) (protein, part only; not given: amber residue and junction residues, part only)
chain, part: MPVPNPTMPVKGAGTTLWVYKGSGDPYANPLSDVDWSRLAKVKDLTPGELTAESYDDSYLDDEDADWTATGQGQKSAGDTSFTLAWMPGEQGQQALLAWFNEGDTRAYKIRFPNGTVDVFRGWVSSIGKAVTAKEVITRTVKVTNVGRPSMAEDRSTVTAATGMTVTPASTSVVKGSWPVRPTPTPTTPTPTPTPTPTPTPTVGPIVTQETATSSTLTGFTFPNFWSNTQENGTEIIFLGNATYTPGALRLTRIGEDGIPLKSNAGQASYSRPVFLWDSTGHVASFYTSFSFIVRSIDVPHITADGFAFFLAPVDSSVKDYGGCLGLFRYKTATDPSKNQVVAVEFDTWPNTEWSDLRYPHIGINVNSTVSVATTRWDNDDAYVTKSTAHITYDATSKIITVLLTYDNGRHYQLSHVVDLPKILPERVRIGFSGGTGFNETQYILSWSFTSTLNSTKISALTQKLRSSASYSSM
chain: TSSTLTGFTFPNFWSNTQENGTEIIFLGNATYTPGALRLTRIGEDGIPLKSNAGQASYSRPVFLWDSTGHVASFYTSFSFIVRSIDVPHITADGFAFFLAPVDSSVKDYGGCLGLFRYKTATDPSKNQVVAVEFDTWPNTEWSDLRYPHIGINVNSTVSVATTRWDNDDAYVTKSTAHITYDATSKIITVLLTYDNGRHYQLSHVVDLPKILPERVRIGFSGGTGFNETQYILSWSFTSTLNSTKISALTQKLRSSASYSSM
recovery of input phage (% of input phage) [20]: 0.01

B2: λV′sac phage particles grown on MC8 (su+), reference phage (protein)
chain: MPVPNPTMPVKGAGTTLWVYKGSGDPYANPLSDVDWSRLAKVKDLTPGELTAESYDDSYLDDEDADWTATGQGQKSAGDTSFTLAWMPGEQGQQALLAWFNEGDTRAYKIRFPNGTVDVFRGWVSSIGKAVTAKEVITRTVKVTNVGRPSMAEDRSTVTAATGMTVTPASTSVVKG
Output Phage [11]: 0 plaques | Output Phage [12]: 5 plaques | Output Phage [13]: 11 plaques | Output Phage [14]: 32 plaques | Output Phage [15]: 6 plaques | Output Phage [16]: 25 plaques | Output Phage [17]: 39 plaques | Output Phage [18]: 106 plaques | Output Phage [19]: 162 plaques
